Assays:
Experiment in all cases: cell-based or functional assay
[1] = molecular target: T1, AVR3a homolog from Phytophthora palmivora designated as L3B (Phytophthora palmivora)
T1 sequence: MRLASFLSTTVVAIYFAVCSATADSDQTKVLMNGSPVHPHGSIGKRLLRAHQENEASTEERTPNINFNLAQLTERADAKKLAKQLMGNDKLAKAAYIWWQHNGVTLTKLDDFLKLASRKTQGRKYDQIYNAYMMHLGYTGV

[2] = molecular target: T2, AVR3a homolog from Phytophthora palmivora designated as L6B (Phytophthora palmivora)
T2 sequence: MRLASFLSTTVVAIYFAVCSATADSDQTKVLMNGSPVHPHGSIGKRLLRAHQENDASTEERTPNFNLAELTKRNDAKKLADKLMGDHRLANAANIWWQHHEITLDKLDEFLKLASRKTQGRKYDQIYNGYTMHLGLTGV

[3] = molecular target: T3, AVR3a homolog from Phytophthora palmivora designated as L7B (Phytophthora palmivora)
T3 sequence: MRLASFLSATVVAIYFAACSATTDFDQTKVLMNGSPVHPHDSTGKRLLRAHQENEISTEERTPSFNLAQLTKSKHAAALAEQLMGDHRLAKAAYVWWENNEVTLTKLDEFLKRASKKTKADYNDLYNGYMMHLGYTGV

[4] = molecular target: AVR3a^KI effector protein of Phytophthora infestans (Phytophthora infestans) (UniProt Q572D3)

B1: wild-type R3a protein (protein)
chain: MEIGLAVGGAFLSSALNVLFDRLAPHGDLLNMFQKHKDHVKLLKKLEDILLGLQIVLSDAENKQASNRHVSQWFNKLQNAVDGAENLIEQVNYEALRLKVEGQHQNLAETSNQQVSDLNLCFSDDFFLNIKDKLEETIETLEVLEKQIGRLGLKEHFGSTKQETRTPSTSLVDDSDIFGRQNDIEDLIDRLLSEDASGKKRTVVPIVGMGGLGKTTLAKAVYNDERVQIHFGLKAWFCVSEAFDAFRITKGLLQEIGSFDLKADDNLNQLQVKLKERLKGKKFLIVLDDVWNDNYNKWDELRNVFVQGDIGSKIIVTTRKESVALMMGNEQISMDNLSTESSWSLFKTHAFENMGPMGHPELEEVGKQIAAKCKGLPLALKTLAGMLRSKSEVEEWKRILRSEIWELPHNDILPALMLSYNDLPAHLKRCFSFCAIFPKDYPFRKEQVIHLWIANGLVPQEDVIIEDSGNQYFLELRSRSLFERVPNPSQGNTENLFLMHDLVNDLAQIASSKLCIRLEESQGSHMLEQSQHLSYSMGYGGEFEKLTPLYKLEQLRTLLPTCIDLPDCCHHLSKRVLHNILPRLTSLRALSLSCYEIVELPNDLFIKLKLLRFLDISRTEIKRLPDSICALYNLETLLLSSCYDLEELPLQMEKLINLRHLDISNTRLLKMPLHLSKLKSLQVLVGAKFLIGGLRMEDLGEVHNLYGSLSVVELQNVVDRREAVKAKMREKNHVDRLYLEWSGSSSADNSQTERDILDELRPHKNIKVVKITGYRGTNFPNWLADPLFLKLVKLSLRNCKNCYSLPALGQLPFLKFLSIREMHGITEVTEEFYGSWSSKKPFNCLEKLEFKDMPEWKQWDLLGSGEFPILEKLLIENCPELSLETVPIQLSSLKSFDVIGSPLVINFPLSILPTTLKRIKISDCQKLKLEQPTGEISMFLEELTLIKCDCIDDISPELLPRARKLWVQDWHNLTRFLIPTATETLDIWNCENVEILSVACGGTQMTSLTIAYCKKLKWLPERMQELLPSLKELHLSNCPEIESFPEGGLPFNLQQLAIRYCKKLVNGRKEWHLQRRLCLTALIIYHDGSDEEIVGGENWELPSSIQRLTIVNLKTLSSQHLKNLTSLQYLFIRGNLPQIQPMLEQGQCSHLTSLQSLQISSLQSLPESALPSSLSHLEISHCPNLQSLPESALPSSLSQLTINNCPNLQSLSESTLPSSLSQLEISFCPNLQYLPLKGMPSSLSELSIYKCPLLKPQLEFDKGEYWPNIAQFPTIKIDRECM
Cell death/HR intensity, pBIN::35S-R3a, 1dpi [1]: 0
Cell death/HR intensity, pBIN::35S-R3a, 2dpi [1]: 1
Cell death/HR intensity, pBIN::35S-R3a, 3dpi [1]: 2
Cell death/HR intensity, pVnt1-R3a, 1dpi [1]: 0
Cell death/HR intensity, pVnt1-R3a, 2dpi [1]: 0
Cell death/HR intensity, pVnt1-R3a, 3dpi [1]: 0
Cell death/HR intensity, pBIN::35S-R3a, 1dpi [2]: 0
Cell death/HR intensity, pBIN::35S-R3a, 2dpi [2]: 0
Cell death/HR intensity, pBIN::35S-R3a, 3dpi [2]: 0
Cell death/HR intensity, pVnt1-R3a, 1dpi [2]: 0
Cell death/HR intensity, pVnt1-R3a, 2dpi [2]: 0
Cell death/HR intensity, pVnt1-R3a, 3dpi [2]: 0
Cell death/HR intensity, pBIN::35S-R3a, 1dpi [3]: 0
Cell death/HR intensity, pBIN::35S-R3a, 2dpi [3]: 1
Cell death/HR intensity, pBIN::35S-R3a, 3dpi [3]: 1
Cell death/HR intensity, pVnt1-R3a, 1dpi [3]: 0
Cell death/HR intensity, pVnt1-R3a, 2dpi [3]: 1
Cell death/HR intensity, pVnt1-R3a, 3dpi [3]: 1
Cell death/HR intensity, pBIN::35S-R3a, 1dpi [4]: 1
Cell death/HR intensity, pBIN::35S-R3a, 2dpi [4]: 1
Cell death/HR intensity, pBIN::35S-R3a, 3dpi [4]: 2
Cell death/HR intensity, pVnt1-R3a, 1dpi [4]: 2
Cell death/HR intensity, pVnt1-R3a, 2dpi [4]: 3
Cell death/HR intensity, pVnt1-R3a, 3dpi [4]: 4

From patent US20130097734A1
